Reference: article PMC2900151 (Biochemistry, 2010)

Target: T1, soluble recombinant human FGFR3c human-IgG chimeric protein (human, UniProt P22607 23-375)
T1 sequence (looked up): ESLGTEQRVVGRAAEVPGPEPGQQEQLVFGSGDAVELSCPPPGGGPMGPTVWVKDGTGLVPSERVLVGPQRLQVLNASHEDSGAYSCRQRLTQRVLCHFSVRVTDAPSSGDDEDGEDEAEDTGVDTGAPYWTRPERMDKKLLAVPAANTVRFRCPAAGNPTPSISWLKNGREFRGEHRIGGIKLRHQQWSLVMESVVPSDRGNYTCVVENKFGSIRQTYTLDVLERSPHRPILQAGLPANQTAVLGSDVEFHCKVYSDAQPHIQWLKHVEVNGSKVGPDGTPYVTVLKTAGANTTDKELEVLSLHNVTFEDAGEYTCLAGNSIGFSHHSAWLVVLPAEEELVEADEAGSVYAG
Assay: ligand and carbohydrate engagement

binding result: binds
B1: recombinant human FGF18 (ligand, UniProt O76093 28-207, looked up)
chain: EENVDFRIHVENQTRARDDVSRKQLRLYQLYSRTSGKHIQVLGRRISARGEDGDKYAQLLVETDTFGSQVRIKGKETEFYLCMNRKGKLVGKPDGTSKECVFIEKVLENNYTALMSAKYSGWYVGFTKKGRPRKGPKTRENQQDVHFMKRYPKGQPELQKPFKYTTVTKRSRRIRPTHPA
